From US20160002344A1 (ONCOMED PHARMACEUTICALS, published 2016)

Columns and labels:
[1] = molecular target: T1, recombinant human RSPO1-Fc fusion protein (human, UniProt Q2MKA7 21-263); test: SPR (Biacore 2000), RSPO1-Fc immobilized on CM5 chip, antibody injected 100 nM to 0.78 nM
T1 construct: not shown: human Fc region
Procedure: (§1) The KD of h89M5-H2L2 was determined using a Biacore 2000 system from Biacore LifeSciences (GE Healthcare). Recombinant human RSPO1-Fc or mouse RSPO1-Fc proteins were immobilized on CM5 chips using standard amine-based chemistry (NHS/EDC). The antibodies were serially diluted 2-fold from 100 nM to 0.78 nM in HBS-P (0.01M HEPES pH7.4, 0.15M NaCl, 0.005% v/v Surfactant P20) and were injected over the chip surface. Kinetic data were collected over time and were fit using the simultaneous global fit equation to yield affinity constants (KD values) for each antibody.

[2] = molecular target: T2, recombinant mouse RSPO1-Fc protein (mouse, UniProt Q9Z132 21-265, limits assumed); test: as above
T2 construct: Construct not described; not shown: Fc; not described
T2 sequence (Q9Z132 21-265 limits assumed): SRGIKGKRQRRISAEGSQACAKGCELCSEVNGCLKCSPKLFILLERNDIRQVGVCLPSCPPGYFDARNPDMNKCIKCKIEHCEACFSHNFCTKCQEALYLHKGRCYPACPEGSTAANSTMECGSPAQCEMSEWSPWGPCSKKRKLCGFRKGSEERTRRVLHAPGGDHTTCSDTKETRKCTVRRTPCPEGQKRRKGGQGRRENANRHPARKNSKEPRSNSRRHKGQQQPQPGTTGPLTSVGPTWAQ
Procedure: as §1

T1 sequence (Q2MKA7 21-263): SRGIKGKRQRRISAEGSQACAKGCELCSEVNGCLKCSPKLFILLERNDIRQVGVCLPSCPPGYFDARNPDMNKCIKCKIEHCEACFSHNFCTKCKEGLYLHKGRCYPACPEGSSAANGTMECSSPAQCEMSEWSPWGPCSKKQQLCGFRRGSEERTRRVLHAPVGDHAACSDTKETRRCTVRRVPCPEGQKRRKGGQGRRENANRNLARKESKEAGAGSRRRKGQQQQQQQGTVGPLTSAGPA

B1: humanized anti-RSPO1 antibody h89M5-H2L2 (antibody, human IgG2, kappa, V domains shown)
VH: QVQLVQSGAEVKKPGASVKVSCKTSGYTFTGYTMHWVRQAPGQRLEWMGGINPNNGGTTYNQNFKGRVTITRDTSASTAYMELSSLRSEDTAVYYCARKEFSDGYYFFAYWGQGTLVTVSS
VL: DIQMTQSPSSLSASVGDRVTITCKASQDVIFAVAWYQQKPGKAPKLLIYWASTRHTGVPSRFSGSGSGTDYTLTISSLQPEDFATYYCQQHYSTPWTFGGGTKVEIKR
notes: also called humanized 89M5; 89M5-H2 with 89M5-L2
Kd [1]: < 0.1 nM
Kd [2]: < 0.1 nM
